Where “and” joins values, the source holds several entries; their conditions need not be identical. Identical values can stand only once.
Assays:
[1] = target: human S100A8 (human) (UniProt P05109); assay: crystal structure; crystal form 2, C2221, 2.1 A; Zn2+/Ca2+-bound with a (Zn)2-cacodylate complex; 5 mM ZnCl2, 0.1 M Na cacodylate pH 6.5, 8 % PEG 8000; four molecules per asymmetric unit
[2] = target: human S100A8 (human) (UniProt P05109); assay: SEC; 24 ml Superdex 75, 20 mM HEPES pH 7.5, 200 mM NaCl, 5 mM CaCl2 (calcium only, no zinc); sizes from a calibration curve with protein standards
[3] = target: human S100A8 (human) (UniProt P05109); assay: crystal structure; crystal form 1, P212121, 2.2 A; Zn2+/Ca2+-bound (3 mM ZnCl2 added); 0.2 M ammonium acetate, 0.1 M Na acetate pH 4.0, 15 % PEG 3350, 0.4 % 2,2,2-trifluoroethanol; eight molecules per asymmetric unit

“human S100A8 (from UniProt P05109 2-93) (natural protein)” was tested. Which stoichiometry N [1] did it give?
Its stoichiometry N is 4.

What about the stoichiometry N [2] of the same substance?
Its stoichiometry N is 4 and 2.

What about the stoichiometry N [3] of the same substance?
The stoichiometry N was 4.
